Measured values: US20170022503A1 (NATIONAL UNIVERSITY OF SINGAPORE, published 2017)

B1: flag-tagged WARS2(L53F) mutant (human) (enzyme)
chain: LHKGSAAAPALQKDSKKRVFSGIQPTGILHLGNYFGAIESWVRLQDEYDSVLYSIVDLHSITVPQDPAVLRQSILDMTAVLLACGINPEKSILFQQSQVSEHTQLSWILSCMVRLPRLQHLHQWKAKTTKQKHDGTVGLLTYPVLQAADILLYKSTHVPVGEDQVQHMELVQDLAQGFNKKYGEFFPVPESILTSMKKVKSLRDPSAKMSKSDPDKLATVRITDSPEEIVQKFRKAVTDFTSEVTYDPAGRAGVSNIVAVHAAVTGLSVEEVVRRSAGMNTARYKLAVADAVIEKFAPIKREIEKLKLDKDHLEKVLQIGSAKAKELAYTVCQEVKKLVGFL
notes: also called mutant WARS2; not shown: C-terminal myc-DDK (flag) tag of the Origene construct

Assays:
Test in all cases: co-IP of flag-tagged protein from HUVEC cells, blot
[1] = molecular target: T1, glutamyl-prolyl tRNA synthetase (EPRS) (human, UniProt P07814 1-1512)
T1 construct: GAIT complex component; endogenous protein of HUVEC cells
T1 sequence (P07814 whole entry): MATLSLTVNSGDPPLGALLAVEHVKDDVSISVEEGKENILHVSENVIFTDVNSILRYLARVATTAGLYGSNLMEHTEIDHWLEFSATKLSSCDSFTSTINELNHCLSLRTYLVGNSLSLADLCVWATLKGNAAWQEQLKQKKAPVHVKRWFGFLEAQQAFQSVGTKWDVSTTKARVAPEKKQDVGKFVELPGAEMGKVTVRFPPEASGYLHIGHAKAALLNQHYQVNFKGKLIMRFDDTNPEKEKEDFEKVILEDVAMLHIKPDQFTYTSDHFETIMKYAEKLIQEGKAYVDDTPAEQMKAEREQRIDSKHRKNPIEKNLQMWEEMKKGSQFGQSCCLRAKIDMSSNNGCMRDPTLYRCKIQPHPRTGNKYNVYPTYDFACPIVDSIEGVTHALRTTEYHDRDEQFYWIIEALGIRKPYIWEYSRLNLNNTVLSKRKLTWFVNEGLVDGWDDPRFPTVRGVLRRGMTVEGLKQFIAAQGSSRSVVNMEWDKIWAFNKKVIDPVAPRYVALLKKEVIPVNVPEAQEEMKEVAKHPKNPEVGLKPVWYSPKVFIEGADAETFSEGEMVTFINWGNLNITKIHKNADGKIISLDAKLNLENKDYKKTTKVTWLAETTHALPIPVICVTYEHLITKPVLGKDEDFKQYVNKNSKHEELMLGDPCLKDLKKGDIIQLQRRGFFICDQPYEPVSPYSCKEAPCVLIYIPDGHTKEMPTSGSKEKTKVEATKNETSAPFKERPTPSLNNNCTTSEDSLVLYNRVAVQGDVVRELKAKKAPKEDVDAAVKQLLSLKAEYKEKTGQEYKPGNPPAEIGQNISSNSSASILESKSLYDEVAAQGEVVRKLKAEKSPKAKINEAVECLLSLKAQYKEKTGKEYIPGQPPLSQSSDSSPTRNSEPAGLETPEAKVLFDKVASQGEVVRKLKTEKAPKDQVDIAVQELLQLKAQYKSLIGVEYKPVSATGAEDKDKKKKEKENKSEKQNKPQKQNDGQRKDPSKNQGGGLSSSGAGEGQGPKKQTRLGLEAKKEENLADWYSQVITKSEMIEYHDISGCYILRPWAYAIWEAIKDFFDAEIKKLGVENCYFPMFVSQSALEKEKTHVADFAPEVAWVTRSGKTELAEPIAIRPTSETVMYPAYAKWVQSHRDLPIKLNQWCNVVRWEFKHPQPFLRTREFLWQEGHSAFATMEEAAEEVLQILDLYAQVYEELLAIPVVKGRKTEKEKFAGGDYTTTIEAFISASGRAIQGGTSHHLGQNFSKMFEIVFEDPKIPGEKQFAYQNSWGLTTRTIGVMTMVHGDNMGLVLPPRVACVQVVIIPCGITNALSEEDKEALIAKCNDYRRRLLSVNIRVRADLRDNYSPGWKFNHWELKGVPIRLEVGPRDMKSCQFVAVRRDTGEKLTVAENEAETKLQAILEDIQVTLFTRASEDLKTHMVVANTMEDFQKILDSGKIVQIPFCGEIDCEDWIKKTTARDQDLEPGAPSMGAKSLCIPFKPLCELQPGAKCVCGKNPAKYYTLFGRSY

[2] = molecular target: Ribosomal Protein L 13a (RPL13a) (human, UniProt P40429 2-203)
[3] = molecular target: B1

| binding result [1] | binding result [2] | binding result [3] | Binder |
| --- | --- | --- | --- |
| no binding | no binding | – | B1 |
| – | – | no binding | glyceraldehyde-3-phosphate dehydrogenase (GAPDH) (enzyme, GAIT complex component; endogenous protein of HUVEC cells) not shown |
